Laboratory results reported in the supplement of paper PMC10567573.

B1: GNB5 (parent)
chain: YYPSGDAFASGSDDATCRLYDLRA
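Further: lentivirally expressed fusions sorted by FACS into six bins by GFP to DsRed ratio, PSI derived from sequencing read proportions per bin multiplied by bin number.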

Variants of: B1
Assay: protein stability index of a GFP-peptide fusion (GPS, HEK-293T) (PSI 1-6); higher = more stable
Settings: c terminus: a fixed tail appended
Variant YYPSGDWFASGSDDATCRLYDLRA has a protein stability index of 1.66.
Variant YYPSGDNFASGSDDATCRLYDLRA has a protein stability index of 2.73.
With YYPSGDLFASGSDDATCRLYDLRA the protein stability index was 2.2.
With YYPSGDSFASGSDDATCRLYDLRA the protein stability index was 2.39.
In the case of YYPSGDFFASGSDDATCRLYDLRA, the protein stability index is reported as 1.77.
Variant YYPSGDDFASGSDDATCRLYDLRA has a protein stability index of 3.83.
For YYPSGDQFASGSDDATCRLYDLRA, the protein stability index was 2.65.
With YYPSGDEFASGSDDATCRLYDLRA the protein stability index was 3.1.
YYPSGDRFASGSDDATCRLYDLRA gave a protein stability index of 3.1.
Variant YYPSGDCFASGSDDATCRLYDLRA has a protein stability index of 2.31.
For YYPSGDMFASGSDDATCRLYDLRA, the protein stability index was 2.47.
YYPSGDGFASGSDDATCRLYDLRA gave a protein stability index of 3.47.
YYPSGDAEASGSDDATCRLYDLRA gave a protein stability index of 4.5.
With YYPSGDAGASGSDDATCRLYDLRA the protein stability index was 4.09.
Work on YYPSGDAKASGSDDATCRLYDLRA yielded a protein stability index of 4.19.
YYASGDAFASGSDDATCRLYDLRA gave a protein stability index of 2.55.
YYCSGDAFASGSDDATCRLYDLRA gave a protein stability index of 2.75.
Variant YYTSGDAFASGSDDATCRLYDLRA has a protein stability index of 3.52.
YYSSGDAFASGSDDATCRLYDLRA gave a protein stability index of 3.27.
YYVSGDAFASGSDDATCRLYDLRA showed a protein stability index of 2.31.
For YYYSGDAFASGSDDATCRLYDLRA, the protein stability index was 2.
Variant YYFSGDAFASGSDDATCRLYDLRA has a protein stability index of 2.5.
YYHSGDAFASGSDDATCRLYDLRA gave a protein stability index of 3.04.
Variant YYPAGDAFASGSDDATCRLYDLRA has a protein stability index of 3.06.
With YYPFGDAFASGSDDATCRLYDLRA the protein stability index was 2.29.
YYPEGDAFASGSDDATCRLYDLRA gave a protein stability index of 3.72.
For YYPTGDAFASGSDDATCRLYDLRA, the protein stability index was 2.86.
For YYPIGDAFASGSDDATCRLYDLRA, the protein stability index was 2.8.
With YYPPGDAFASGSDDATCRLYDLRA the protein stability index was 3.78.
Work on YYPDGDAFASGSDDATCRLYDLRA yielded a protein stability index of 3.56.
With YYPRGDAFASGSDDATCRLYDLRA the protein stability index was 2.46.
For YYPQGDAFASGSDDATCRLYDLRA, the protein stability index was 3.48.
Work on YYPLGDAFASGSDDATCRLYDLRA yielded a protein stability index of 2.52.
For YYPGGDAFASGSDDATCRLYDLRA, the protein stability index was 3.14.
For YYPSGGAFASGSDDATCRLYDLRA, the protein stability index was 2.72.
Variant YYPSGRAFASGSDDATCRLYDLRA has a protein stability index of 1.91.
With YYPSGHAFASGSDDATCRLYDLRA the protein stability index was 2.26.
YYPSGYAFASGSDDATCRLYDLRA gave a protein stability index of 1.97.
In the case of YYPSGWAFASGSDDATCRLYDLRA, the protein stability index is reported as 1.52.
YYPSGFAFASGSDDATCRLYDLRA showed a protein stability index of 2.14.
Variant YYPSGKAFASGSDDATCRLYDLRA has a protein stability index of 1.64.
In the case of YYPSGIAFASGSDDATCRLYDLRA, the protein stability index is reported as 1.89.
Work on YYPSGAAFASGSDDATCRLYDLRA yielded a protein stability index of 2.31.
For YYPSGSAFASGSDDATCRLYDLRA, the protein stability index was 2.52.
For YYPSGMAFASGSDDATCRLYDLRA, the protein stability index was 1.92.
For YYPSGDAFASGSDDATCRLYDLEA, the protein stability index was 3.14.
For YYPSGDAFASGSDDATCRLYDLTA, the protein stability index was 2.18.
With YYPSGDAFASGSDDATCRLYDLLA the protein stability index was 2.03.
Work on YYPSGDAFASGSDDATCRLYDLQA yielded a protein stability index of 2.47.
Variant YYPSGDAFASGSDDATCRLYDLYA has a protein stability index of 2.01.
Work on YYPSGDAFASGSDDATCRLYDLPA yielded a protein stability index of 2.86.
With YYPSGDAFASGSDDATCRLYDLKA the protein stability index was 2.58.
YYPSGDAFASGSDDATCRLYDLVA showed a protein stability index of 2.03.
YYPSGDAFASGSDDATCRLYDLDA showed a protein stability index of 3.01.
For YYPSGDAFASGSDDATCRLYALRA, the protein stability index was 2.18.
In the case of YYPSGDAFASGSDDATCRLYNLRA, the protein stability index is reported as 1.99.
In the case of YYPSGDAFASGSDDATCRLYKLRA, the protein stability index is reported as 2.43.
For YYPSGDAFASGSDDATCRLYHLRA, the protein stability index was 2.31.
YYPSGDAFASGSDDATCRLYCLRA gave a protein stability index of 1.58.
YYPSGDAFASGSDDATCRLYDLRG showed a protein stability index of 2.7.
Work on YYPSGDAFASGSDDATCRLYDLRW yielded a protein stability index of 2.
In the case of YYPSGDAFASGSDDATCRLYDLRM, the protein stability index is reported as 2.85.
Variant YYPSGDAFASGSDDATCRLYDLRD has a protein stability index of 2.62.
YYPSGDAFASGSDDATCRLYDLRS showed a protein stability index of 2.32.
Variant YYPSGDAFASGSDDATCRLYDLRL has a protein stability index of 2.14.
In the case of YYPSGDAFASGSDDATCRLYDLRE, the protein stability index is reported as 2.27.
With YYPSGDAFASGSDDATCRLYDLRH the protein stability index was 2.24.
YYPSGDAFASGSDDATCRLYDLRI gave a protein stability index of 1.9.
For YYPSGDAFASGSDDATCREYDLRA, the protein stability index was 3.39.
For YYPSGDAFASGSDDATCRVYDLRA, the protein stability index was 2.56.
YYPSGDAFASGSDDATCRGYDLRA showed a protein stability index of 2.9.
Variant YYPSGDAFASGSDDATCRPYDLRA has a protein stability index of 2.61.
YYPSGDAFASGSDDATCRKYDLRA showed a protein stability index of 2.77.
In the case of YYPSGDAFASGSDDATCRQYDLRA, the protein stability index is reported as 2.65.
For YYPSGDAFASGSDDATCRIYDLRA, the protein stability index was 2.3.
Variant YYPSGDAFASGSDDATCRMYDLRA has a protein stability index of 2.5.
Variant YYPSGDAFASGSDDATCRYYDLRA has a protein stability index of 2.57.
Work on YYPSGDAFASGSDDATCRCYDLRA yielded a protein stability index of 2.66.
In the case of YYPSGDAFASGSDDATCRTYDLRA, the protein stability index is reported as 3.07.
YYPSGDAFASGSDDATCKLYDLRA showed a protein stability index of 3.04.
With YYPSGDAFASGSDDATCELYDLRA the protein stability index was 3.25.
YYPSGDAFASGSDDATCWLYDLRA showed a protein stability index of 2.15.
In the case of YYPSGDAFASGSDDATCPLYDLRA, the protein stability index is reported as 3.13.
YYPSGDAFASGSDDATCVLYDLRA gave a protein stability index of 2.67.
Variant YYPSGDAFASGSDDATCYLYDLRA has a protein stability index of 2.49.
For YYPSGDAFASGSDDATCQLYDLRA, the protein stability index was 2.85.
For YYPSGDAFASSSDDATCRLYDLRA, the protein stability index was 2.08.
Variant YYPSGDAFASHSDDATCRLYDLRA has a protein stability index of 2.44.
Variant YYPSGDAFASFSDDATCRLYDLRA has a protein stability index of 1.99.
YYPSGDAFASDSDDATCRLYDLRA gave a protein stability index of 2.74.
Work on YYPSGDAFASTSDDATCRLYDLRA yielded a protein stability index of 2.28.
YYPSGDAFASMSDDATCRLYDLRA showed a protein stability index of 1.66.
Work on YYPSGDAFASGSDDATCRLHDLRA yielded a protein stability index of 2.42.
In the case of YYPSGDAFASGSDDATCRLADLRA, the protein stability index is reported as 2.73.
